From article PMC12136000

Biological target: FLAG-tagged eIF3d (wild-type eIF3D-FLAG) (UniProt O15371)
Assay: co-IP; HeLa lysate (50 mM Tris pH7.5, 150 mM NaCl, 1% Triton-X, Benzonase) on anti-flag-beads for 2 h at 4 °C, three washes, western blot; cells treated for 2 h with DMSO or with 3 µM of the CK2 inhibitor CX-5011 before lysis

UniProt O15371, sequence (O15371 whole entry): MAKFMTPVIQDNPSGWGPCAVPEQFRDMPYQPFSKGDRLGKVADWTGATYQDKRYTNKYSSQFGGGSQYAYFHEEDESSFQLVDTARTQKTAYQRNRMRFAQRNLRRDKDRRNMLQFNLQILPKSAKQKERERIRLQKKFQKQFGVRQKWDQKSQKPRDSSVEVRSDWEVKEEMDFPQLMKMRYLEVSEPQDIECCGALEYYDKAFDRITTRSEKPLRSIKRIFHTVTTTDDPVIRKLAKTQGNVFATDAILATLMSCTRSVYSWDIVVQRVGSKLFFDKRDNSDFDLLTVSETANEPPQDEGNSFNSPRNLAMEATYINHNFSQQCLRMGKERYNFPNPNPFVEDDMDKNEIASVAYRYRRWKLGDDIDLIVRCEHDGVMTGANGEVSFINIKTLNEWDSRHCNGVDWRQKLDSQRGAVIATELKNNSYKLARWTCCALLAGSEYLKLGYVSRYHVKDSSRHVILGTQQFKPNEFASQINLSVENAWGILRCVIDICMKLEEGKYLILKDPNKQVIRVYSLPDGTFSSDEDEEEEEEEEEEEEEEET

Substance: eIF4A (from UniProt P60842 1-406) (natural protein)
- decrease of co-precipitation (IP relative to input) after the CK2 inhibitor CX-5011: 37 % decrease
